One molecule from patent publication US20210324104A1 (INSERM INSTITUT NATIONAL DE LA SANT ET DE LA RECHERCHE M …, published 2021) can be followed below.

Experiment [1] deals with T1, nectin-2 (UniProt Q92692 32-538, limits assumed).
T1 construct: whole, on cells
T1 sequence (looked up): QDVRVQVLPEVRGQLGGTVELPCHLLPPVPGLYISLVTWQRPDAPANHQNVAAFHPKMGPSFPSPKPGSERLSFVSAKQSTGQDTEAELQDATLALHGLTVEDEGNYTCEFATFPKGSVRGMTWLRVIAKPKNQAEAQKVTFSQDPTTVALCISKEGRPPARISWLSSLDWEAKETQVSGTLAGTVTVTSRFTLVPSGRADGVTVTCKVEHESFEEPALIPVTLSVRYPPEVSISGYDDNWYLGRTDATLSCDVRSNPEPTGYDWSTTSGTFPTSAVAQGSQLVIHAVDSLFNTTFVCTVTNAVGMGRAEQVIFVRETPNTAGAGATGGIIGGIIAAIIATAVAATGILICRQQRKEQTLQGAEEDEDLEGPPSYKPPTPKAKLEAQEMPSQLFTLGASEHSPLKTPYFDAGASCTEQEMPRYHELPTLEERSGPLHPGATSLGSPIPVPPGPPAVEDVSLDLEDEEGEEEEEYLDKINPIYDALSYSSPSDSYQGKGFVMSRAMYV
Put plainly: western blot of lysates of MDA-MB-231 cells transfected with null vector (wt cells express nectin-1, -2, -3); similar results by FACS. (Immunoblotting shows a protein as a band on a membrane.)

The target in experiment [2] is T2, nectin-1 (UniProt Q15223 31-517, limits assumed).
T2 construct: whole, on cells
T2 sequence (looked up): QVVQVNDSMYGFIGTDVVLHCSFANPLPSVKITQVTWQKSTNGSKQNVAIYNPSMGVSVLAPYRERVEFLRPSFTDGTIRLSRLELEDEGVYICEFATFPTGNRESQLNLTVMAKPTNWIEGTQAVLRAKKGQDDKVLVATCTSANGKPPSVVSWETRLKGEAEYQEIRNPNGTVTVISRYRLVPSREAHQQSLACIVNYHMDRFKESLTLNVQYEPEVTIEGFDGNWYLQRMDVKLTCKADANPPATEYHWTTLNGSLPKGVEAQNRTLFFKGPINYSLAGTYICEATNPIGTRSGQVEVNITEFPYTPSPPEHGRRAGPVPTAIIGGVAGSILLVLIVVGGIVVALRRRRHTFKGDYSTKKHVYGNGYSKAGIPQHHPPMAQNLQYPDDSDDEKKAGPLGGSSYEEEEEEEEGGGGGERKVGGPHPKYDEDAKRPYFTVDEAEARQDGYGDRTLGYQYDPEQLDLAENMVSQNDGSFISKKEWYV
Described as above.

B1: 14A5.2 monoclonal antibody (antibody, V domains shown)
VH: EVLLQQSGPELVKPGASVKIPCKASGYTFTDYTMDWVKQSHGKSLEWIGDINPNNDVTMYNEKFKGRATLTVDKSSSTAYMEVRSLTSEDTAVYYCVRGRGFAYWGQGTLVTVSA
VL: DIVLTQSPASLIVSLGQRATISCRASQSVSTSSNSYMHWYQQKPGQPPKLLIRFASNLESGVPARFSGSGSGTYFTLNIHPVEEEDSATYYCQHSWEIPYTFGGGTKLEIK
notes: Parental non-chimeric monoclonal antibody; also called 14A5.2 mab; 14A5.2-HRP
On to B1, for which the binding result in experiment [1] and in experiment [2] was “no binding (tested: 1 µg/ml)” throughout.
